Results: paper PMC5347340 (2017)

Experiments:
[1] = molecular target: BG505 gp140.681.R1-1NOG trimer (HIV-1 BG505, UniProt Q2N0S6); assay: BLI
[2] = molecular target: BG505 gp140.681.R1-1V6H trimer (HIV-1 BG505, UniProt Q2N0S6); assay: BLI

B1: PGDM1400 (protein)
chain 1: DFVLTQSPHSLSVTPGESASISCKSSHSLIHGDRNNYLAWYVQKPGRSPQLLIYLASSRASGVPDRFSGSGSDKDFTLKISRVETEDVGTYYCMQGRESPWTFGQGTKVDIKRTVAAPSVFIFPPSDEQLKSGTASVVCLLNNFYPREAKVQWKVDNALQSGNSQESVTEQDSKDSTYSLSSTLTLSKADYEKHKVYACEVTHQGLSSPVTKSFNRGEC
chain 2: QAQLVQSGPEVRKPGTSVKVSCKAPGNTLKTYDLHWVRSVPGQGLQWMGWISHEGDKKVIVERFKAKVTIDWDRSTNTAYLQLSGLTSGDTAVYYCAKGSKHRLRDYALYDDDGALNWAVDVDYLSNLEFWGQGTAVTVSSASTKGPSVFPLAPSSKSTSGGTAALGCLVKDYFPEPVTVSWNSGALTSGVHTFPAVLQSSGLYSLSSVVTVPSSSLGTQTYICNVNHKPSNTKVDKKVEPKSCD
Kd [1]: 4.7 nM | Kd [2]: 5.1 nM
